Tested on: His-DLA2 (RBP63, Cr-E2) (Chlamydomonas reinhardtii)
Experiment: filter binding
Details: 5 mM Mg2+; 6.7 pM RNA; 20 mM HEPES/KOH pH 7.8, 5 mM MgCl2, 60 mM KCl, RT; 5 min (UV cross-linking, 254 nm, 1 J/cm2) or 15 min (filter binding); native fractions dialyzed to 30 mM …

psbA 5' UTR RNA
Kd: 51 nM

Reference: publication PMC3570535
